Test results from the Human Domainome abundance scans (Beltran et al. 2025).

B1: POU domain, class 3, transcription factor 2, residues 356 to 411; numbered along this chain, P20265 (parent)
chain: KKRTSIEVSVKGALESHFLKCPKPSAQEITSLADSLQLEKEVVRVWFCNRRQKEKR
B2: GA-binding protein alpha chain, residues 172 to 250; numbered along this chain, Q06546 (parent)
chain: GYRKEQERLGIPYDPIQWSTDQVLHWVVWVMKEFSMTDIDLTTLNISGRELCSLNQEDFFQRVPRGEILWSHLELLRKY

Variants of: B1
Assay: abundance fitness (aPCA) (normalised: wild type 0, dead -1); higher = more abundant; growth selection in yeast, the domain comes from the species named
Settings: Homo sapiens

Abundance fitness of substitutions, site by site:
C48: E 0.149, L -0.059, F 0.078, I -0.004, H -0.118, K 0.101, A -0.096, Q 0.141
W46: V -0.933, F -0.393, M -0.922, K -0.845, D -0.318, C -0.826, S -0.698, N -0.896, L -0.934, H -0.927, G -0.92, Q -0.78, E -0.946, R -0.805, P -0.986, T -0.958, Y -0.648, A -0.932, I -0.932
V42: H 0.081, S -0.179, C -0.01, M -0.299, I -0.204, T -0.02, Q -0.136, F -0.042, K -0.116, P -0.869, D 0.051, E 0.01, R -0.363, N -0.309, W -0.147, A -0.089, G -0.453, Y 0.05
K55: I -0.036, N -0.046, M -0.056, S 0.024, C -0.33, A 0.139, W -0.187, R -0.211, E 0.093, Q -0.244, G -0.029, H -0.274, V -0.116, D 0.036, T -0.029, P -0.396, F -0.167, L -0.087, Y -0.019
Q52: T 0.039, E 0.222, G -0.076, R -0.104, A 0.039, K -0.001, D 0.015, I -0.145, S -0.135, P -0.956, F -0.106, W -0.241, L -0.125, N -0.007, V -0.131, H -0.002, M -0.053
R50: Q -0.161, N -0.907, P -0.982, G -0.735, D -0.849, C -0.868, V -1, F -1.05, M -0.545, W -0.924, H -0.583, S -0.659, A -0.35, E -0.398
V45: F -0.175, S 0.097, T 0.001, Y -0.152, R -0.293, H 0.089, I 0.01, D 0.07, N -0.006, C -0.294, K -0.057, Q 0.061, G -0.048, L -0.033, W -0.038, M -0.101, P -0.784
N49: M -0.197, H -0.08, D 0.221, E 0.066, F -0.515, A -0.239, L -0.149, Y -0.396, K -0.056, G -0.25, V -0.103, S -0.137, W -0.18, Q -0.005, T -0.207, C -0.14, R -0.135, I -0.249

Variants of: B2
Assay: as above
Settings: Homo sapiens

Abundance fitness: each site, then its substitutions
R3: Q -0.05, P -0.517, D -0.499, Y -0.19, C -0.206, M -0.158, W -0.081, E -0.004, F -0.058, L -0.182, H -0.098, G -0.176, K -0.083, V -0.262, S -0.214, N -0.373, A -0.268
K4: A -0.063, C -0.27, N -0.032, Q -0.106, F -0.131, P -0.326, H -0.003, E -0.072, R -0.029, D -0.104, S -0.026, I 0.054
G1: Q -0.047, M 0.045, R 0.091, A -0.1, S -0.135, L -0.634, T -0.156, E -0.164
